These results are taken from patent US20230295310A1 (ABCELLERA BIOLOGICS, published 2023).

Positions count from the first letter of the chain named.

The target of this assay is human EGFR, C-terminal eGFP-tagged, on CHO-K1 cells (human, UniProt P00533 25-1210). The experiment in a line: cell-based or functional assay.

B1: GOMP001_bsAb_011 (bispecific antibody, human IgG1, kappa, L234A L235A)
heavy 1: QVQLVQSGAEVKKPGASVKVSCKASGYTFTSHWMHWVRKAPGQGLEWIGEFNPSNGRTNYNEEFKSKATMTVDTSTNTAYMELSSLRSEDTAVYYCASRDYDYDGRYFDYWGQGTLVTVSSASTKGPSVFPLAPSSKSTSGGTAALGCLVADYFPEPVTVSWNSGALTSGVHTFPAVLQSSGLYSLSSVVTVPSSSLGTQTYICNVNHKPSNTKVDEKVEPKSCDKTHTCPPCPAPEAAGGPSVFLFPPKPKDTLMISRTPEVTCVVVDVSHEDPEVKFNWYVDGVEVHNAKTKPREEQYNSTYRVVSVLTVLHQDWLNGKEYKCKVSNKALPAPIEKTISKAKGQPREPQVYTLPPSREEMTDNQVSLTCLVKGFYPSDIAVEWESNGQPENNYKTTPPVLMSDGSFFLASKLTVDKSRWQQGNVFSCSVMHEALHNHYTQKSLSLSPG
light 1: RIQMTQSPSSLSASVGDRVTITCSASSSVTYMYWYQDKPGKAPKLLIYDTSNLASGVPSRFSGSGSGTDYTFTISSLQPEDIATYYCQQWSSHIFTFGQGTKVEIKRTVAAPSVFIFPPSDKQLKSGTARVVCLLNNFYPREAKVQWKVDNALQSGNSQESVTEQDSKDSTYSLSSTLTLSKADYEKHKVYACEVTHQGLSSPVTKSFNRGEC
heavy 2: EVQLVESGGGLVQPGGSLRLSCAASGFTLSSYTMNWVRYAPGKGLEWVSYISSSSRTIYYSDRVKGRFSISRDNAKNSLYLQMNSLRDEDTALYYCAREDYYDSSGFDNWGRGTLVTVSSASTKGPSVFPLAPSSKSTSGGTAALGCLVKDYFPEPVTVSWNSGALTSGVHTFPAVLQSSGLYSLSSVVTVPSSSLGTQTYICNVNHKPSNTKVDKKVEPKSCDKTHTCPPCPAPEAAGGPSVFLFPPKPKDTLMISRTPEVTCVVVDVSHEDPEVKFNWYVDGVEVHNAKTKPREEQYNSTYRVVSVLTVLHQDWLNGKEYKCKVSNKALPAPIEKTISKAKGQPRRPRVYTLPPSREEMTKNQVSLVCLVKGFYPSDIAVEWESNGQPENNYKTTPPVLDSDGSFFLYSVLTVDKSRWQQGNVFSCSVMHEALHNHYTQKSLSLSPG
light 2: DIRMTQSPSSFSASTGDRVTITCRASQGISSYLAWYQRKPGDAPKLLIYTASTLQSGVPSRFSGSGSGTDFTLTIRSLQSEDFATYYCQQYYSYPRTFGQGTKVEIKRTVAAPSVFIFPPSDEQLKSGTASVVCLLNNFYPREAKVQWKVDNALQSGNSQESVTEQDSKDSTYSLSSTLTLSKADYEKHKVYACEVTHQGLSSPVTKSFNRGEC
On to B1, for which the “EC50 CHO-K1 EGFR Low (nM); T cell activation bioassay, luciferase” value came to 0.106 nM and the “EC50 CHO-K1 EGFR Med (nM); T cell activation bioassay, luciferase” value turned out to be 0.0263 nM.

B2: GOMP001_bsAb_012 (bispecific antibody, human IgG1, kappa, L234A L235A)
heavy 1: B1 heavy 2
light 1: B1 light 2
heavy 2: QVQLVQSGAEVKKPGASVKVSCKASGYTFTSHWMHWVRYAPGQGLEWIGEFNPSNGRTNYNEKFKSKATMTVDTSTNTAYMELSSLRSEDTAVYYCASRDYDYDGRYFDYWGRGTLVTVSSASTKGPSVFPLAPSSKSTSGGTAALGCLVKDYFPEPVTVSWNSGALTSGVHTFPAVLQSSGLYSLSSVVTVPSSSLGTQTYICNVNHKPSNTKVDKKVEPKSCDKTHTCPPCPAPEAAGGPSVFLFPPKPKDTLMISRTPEVTCVVVDVSHEDPEVKFNWYVDGVEVHNAKTKPREEQYNSTYRVVSVLTVLHQDWLNGKEYKCKVSNKALPAPIEKTISKAKGQPRRPRVYTLPPSREEMTKNQVSLVCLVKGFYPSDIAVEWESNGQPENNYKTTPPVLDSDGSFFLYSVLTVDKSRWQQGNVFSCSVMHEALHNHYTQKSLSLSPG
light 2: B1 light 1 with R1D, D37R, K41D, K122E, R130S
For B2, the “EC50 CHO-K1 EGFR Low (nM); T cell activation bioassay, luciferase” value worked out at 0.147 nM and the “EC50 CHO-K1 EGFR Med (nM); T cell activation bioassay, luciferase” value was 0.0234 nM.
